Test results from article doi:10.1101/2024.01.24.577129 (2024).

How the values were obtained:
Assay in all cases: SPR
[1] = target: D^d MHC class I monomer presenting […] (mouse | )
[2] = target: T1, K^d MHC class I monomer presenting VYLKTNVFL (mouse | )
T1 chain 1: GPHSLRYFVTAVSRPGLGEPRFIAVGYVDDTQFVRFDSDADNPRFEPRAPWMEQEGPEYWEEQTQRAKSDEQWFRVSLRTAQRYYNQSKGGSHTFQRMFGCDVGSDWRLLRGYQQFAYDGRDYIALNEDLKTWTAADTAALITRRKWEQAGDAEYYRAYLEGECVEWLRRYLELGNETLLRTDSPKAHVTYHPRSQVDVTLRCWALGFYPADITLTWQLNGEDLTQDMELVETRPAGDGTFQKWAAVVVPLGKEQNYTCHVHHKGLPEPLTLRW
T1 chain 2: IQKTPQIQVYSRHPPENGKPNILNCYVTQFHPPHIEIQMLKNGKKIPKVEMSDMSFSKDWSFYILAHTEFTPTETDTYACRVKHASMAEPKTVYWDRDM
T1 chain 3: VYLKTNVFL

[3] = target: T2, K^b MHC class I monomer presenting SIINFEKL (mouse | )
T2 chain 1: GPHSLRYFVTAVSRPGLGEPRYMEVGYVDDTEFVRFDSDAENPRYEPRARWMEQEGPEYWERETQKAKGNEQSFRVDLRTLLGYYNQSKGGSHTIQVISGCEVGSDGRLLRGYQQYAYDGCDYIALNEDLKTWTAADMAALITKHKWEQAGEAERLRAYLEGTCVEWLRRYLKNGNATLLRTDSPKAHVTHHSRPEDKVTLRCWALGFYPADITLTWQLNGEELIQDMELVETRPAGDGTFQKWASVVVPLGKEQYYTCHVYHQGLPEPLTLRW
T2 chain 2: T1 chain 2
T2 chain 3: SIINFEKL

B1: 34-1-2S antibody (antibody, V domains shown)
VH: EVQLQQSGAEFVRPGASVKLSCTASGFNLKDDYMFWVKQRPEQGLEWIGWIAPDNGDTEYASKFQGKATITADTSSNTAYVQLSSLTSEDTAVYYCTTWGYYSYVNYWGQGTTLTVSS
VL: DIQMTQSPSSLSASLGERVSLTCRASQDIGSNLNWLQQEPDGTIKRLIYATYSLDSGVPKRFSGSRSGSDYSLTISSLESEDFVDYYCLQYASSPYTFGGGTKLEIK
Question: With B1 as the binder, how does the Kd [1] read?
Answer: 30 nM

Question: And the Kd [2]?
Answer: 9.1 nM

Question: What about the Kd [3] of the same binder?
Answer: 2490 nM
